# B1: hSIRPα.50A (antibody, V domains shown)
# VH: QVQLQQSGPELVKPGASVRISCKASGFTFTNYYIHWVKQRPGQGLEWIGWIYPGNVNTKYNEKFKAKATLTADKSSTTAYMQLSSLASEDSAVYFCARPTIIATDFDVWGAGTTVTVSS
# VL: DIVMTQSHKFMSTSVGDRVNITCKASQGVGTAVGWYQQKPGQSPRLLIYWASTRHTGVPDRFTGSGSGTDFSLAISNVQSEDLADYFCQQYSTYPFTFGGGTNLEIK
# notes: light chain constant domain not tied; also called mouse hSIRPα.50A; hSIRPα.50A.mIgG1
# B2: hSIRPα.40A (antibody, mouse IgG1, kappa, V domains shown)
# VH: EVQFQQSGTVLARPGTSVKMSCKASGSTFTSYWMHWVKQGPGQGLQWIGAIYPVNNDTTYNQKFKGKAELTVVTSTSTAYMEVSSLTNEDSAVYYCTRSFYYSLDAAWFVYWGQGTLVTVSA
# VL: DIQMTQSPSSLSASLGERVSLTCRASQDIGSRLNWLQQEPDGTIKRLIYATSSLDSGVPKRFSGSRSGSDYSLTISGLESEDFVDYYCLQYASSPFTFGGGTKLEINR
# notes: mouse antibody, full chains without signal peptide; also called mouse hSIRPα.40A
# B3: KWAR23 (antibody, V domains shown)
# VH: EVQLQQSGAELVKPGASVKLSCTASGFNIKDYYIHWVQQRTEQGLEWIGRIDPEDGETKYAPKFQDKATITADTSSNTAYLHLSSLTSEDTAVYYCARWGAYWGQGTLVTVSS
# VL: QIVLTQSPAIMSASPGEKVTLTCSASSSVSSSYLYWYQQKPGSSPKLWIYSTSNLASGVPARFSGSGSGTSYSLTISSMEAEDAASYFCHQWSSYPRTFGAGTKLELK
# Experiments:
# [1] = target: T1, hSIRPα expressed on primary human cells (human, UniProt P78324 31-504); test: flow cytometry, blockade of DyLight488-hCD47/Fc binding to CD14+ enriched monocytes, donor 2
# T1 construct: whole, on cells; also called hSIRPα on primary human CD14+ monocytes; on primary human granulocytes
# Experimental: (§1) To assess the blocking ability of hSIRPα.50A, CD14+ enriched monocytes cells were seeded in 96-well round bottomed tissue culture plates and incubated for 45 minutes with FcR Blocking Reagent (Miltenyi Biotec) and hSIRPα.50A antibody (200 μg/mL and dilutions thereof) in PBS/1% BSA at 4° C. […] After this labeling procedure, cells were washed two times, resuspended in PBS/1% BSA containing 0.1 μg/mL DAPI (BioLegend), and analysed by flow cytometry on the FACSVerse (BD Biosciences). Data were processed and analysed with FlowJo V10 software (FlowJo, LLC). […] IC50 values represent the concentration at which half of the inhibition is observed.
# [2] = target: T1, hSIRPα expressed on primary human cells; test: flow cytometry on CD14+ enriched monocytes, human donor 1; blocked ligand: DyLight 488-labeled recombinant hCD47/Fc
# Experimental: as §1, with “hSIRPα.40A,” for “hSIRPα.50A,”, “hSIRPα.40A” for “hSIRPα.50A”, “(20” for “(200”
# human SIRPβ1 = target: T2, human SIRPβ1 (human, UniProt O00241 30-398); test: CELISA, CHO-K1 transfectants
# T2 construct: also called hSIRPβ1
# Experimental: (§2) The specificity of monoclonal anti-hSIRPα antibodies (e.g., including the hSIRPα antibodies known in the art, KWAR23 ([…]. Patent CA2939293 A1), 18D5 (Patent WO2017/178653 A2), and various commercially available hSIRPα antibodies) for binding to hSIRPαV1, hSIRPαV1(P74A), and hSIRPβ1 was evaluated by CELISA. Reactivity was confirmed using CHO-K1 cells (ATCC CCL-61) expressing a cDNA encoding the full length open reading frame of hSIRPαV1, hSIRPαV1(P74A), and hSIRPβ1 subcloned into the pCI-neo vector (Promega, Madison, Wis.). CHO-K1.hSIRPαV1, CHO-K1.hSIRPαV1(P74A), and CHO-K1.hSIRPβ1 cells were seeded in culture medium (DMEM-F12 (Gibco) supplemented with 5% New Born Calf Serum (BioWest) and Pen/Strep (Gibco)) in 96-well flat-bottom tissue culture plates and incubated at 37° C., 5% CO₂ and 95% humidity for 24 hours. Subsequently, culture medium was removed and cells were incubated for 1 hour at 37° C., 5% CO₂ and 95% humidity with purified hSIRPα antibodies (used at 10 μg/ml and dilutions thereof). Next, cells were washed with PBS-T and incubated for 1 hour at 37° C., 5% CO₂ and 95% humidity with either goat-anti-mouse IgG-HRP (Southern Biotech), goat-anti-human IgG-HRP (Jackson Immuno Research), or goat-anti-rabbit IgG-HRP (Southern Biotech). Subsequently, cells were washed three times with PBS-T and immunoreactivity against hSIRPαV1, hSIRPαV1(P74A), and hSIRPβ1 was visualized with TMB Stabilized Chromogen (Invitrogen). Reactions were stopped with 0.5 M H₂SO₄ and absorbances were read at 450 and 610 nm.
# hSIRPαV1(P74A) = target: T3, hSIRPαV1(P74A) (human, UniProt P78324 31-504); test: CELISA, CHO-K1 transfectants
# T3 construct: also called P74A variant of hSIRPαV1
# Experimental: as §2
# T1 sequence (P78324 31-504): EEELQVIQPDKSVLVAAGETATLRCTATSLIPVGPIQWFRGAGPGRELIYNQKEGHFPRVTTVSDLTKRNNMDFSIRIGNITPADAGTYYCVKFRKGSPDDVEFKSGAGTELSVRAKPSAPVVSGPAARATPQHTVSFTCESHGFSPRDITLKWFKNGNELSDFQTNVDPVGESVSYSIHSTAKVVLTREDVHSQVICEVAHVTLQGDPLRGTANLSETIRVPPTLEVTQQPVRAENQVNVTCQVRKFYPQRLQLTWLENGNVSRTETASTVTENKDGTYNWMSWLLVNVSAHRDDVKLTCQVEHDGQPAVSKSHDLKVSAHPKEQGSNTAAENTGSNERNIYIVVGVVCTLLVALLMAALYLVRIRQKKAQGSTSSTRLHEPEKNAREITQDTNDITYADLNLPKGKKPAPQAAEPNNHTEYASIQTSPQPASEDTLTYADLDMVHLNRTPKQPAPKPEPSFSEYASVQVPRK
# T3 sequence (P78324 31-504 P74A limits assumed): as the sequence (P78324 31-504) above, with P44A counted along it
# T2 sequence (O00241 30-398 limits assumed): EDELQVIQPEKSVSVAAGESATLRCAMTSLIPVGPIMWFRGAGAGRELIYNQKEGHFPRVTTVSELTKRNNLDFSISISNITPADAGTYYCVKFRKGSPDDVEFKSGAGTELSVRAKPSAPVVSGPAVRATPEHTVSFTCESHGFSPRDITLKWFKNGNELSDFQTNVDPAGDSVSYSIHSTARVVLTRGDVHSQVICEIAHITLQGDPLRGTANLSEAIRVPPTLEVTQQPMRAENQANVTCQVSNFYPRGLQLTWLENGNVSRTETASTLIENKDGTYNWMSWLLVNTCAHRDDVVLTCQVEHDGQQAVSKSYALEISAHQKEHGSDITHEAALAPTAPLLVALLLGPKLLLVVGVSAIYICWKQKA
binder,measurement,setting,value
B1,IC50,[1],1.03 nM
B2,IC50 (read off the curve),[2],~0.4 nM
B3,EC50,human SIRPβ1,0.065 nM
same,EC50,hSIRPαV1(P74A),0.077 nM
